Experimental data as given in patent US9802997B2, “Peptides and combination of peptides for use in immunotherapy against various tumors” (immatics biotechnologies GmbH, priority 2015, dated 2017).

target: HLA-A*02:01 (Homo sapiens, UniProt P04439, D140Y/D185E/D98H/E176V/E277Q/G131W/G231S/I119V/I121R/I166T/I218V/L300P/L318F/N151K/N90K/P208A/P217A/Q86G/Q94H/R138H/R169H/T345S); assay: MHC binding assay (UV-ligand exchange, beta2m ELISA); conditions: binding to HLA-A*02:01, β2m ELISA
From the text: Candidate peptides for T cell based therapies according to the present invention were further tested for their MHC binding capacity (affinity). The individual peptide-MHC complexes were produced by UV-ligand exchange, where a UV-sensitive peptide is cleaved upon UV-irradiation, and exchanged with the peptide of interest as analyzed. Only peptide candidates that can effectively bind and stabilize the peptide-receptive MHC molecules prevent dissociation of the MHC complexes. To determine the yield of the exchange reaction, an ELISA was performed based on the detection of the light chain (β2m) of stabilized MHC complexes. The assay was performed as generally described in Rodenko et al. (Rodenko et al., 2006).
96 well MAXISorp plates (NUNC) were coated over night with 2 ug/ml streptavidin in PBS at room temperature, washed 4× and blocked for 1 h at 37° C. in 2% BSA containing blocking buffer. Refolded HLA-A*02:01/MLA-001 monomers served as standards, covering the range of 15-500 ng/ml. Peptide-MHC monomers of the UV-exchange reaction were diluted 100 fold in blocking buffer. Samples were incubated for 1 h at 37° C., washed four times, incubated with 2 ug/ml HRP conjugated anti-β2m for 1 h at 37° C., washed again and detected with TMB solution that is stopped with […]. Absorption was measured at 450 nm. Candidate peptides that show a high exchange yield (preferably higher than 50%, most preferred higher than 75%) are generally preferred for a generation and production of antibodies or fragments thereof, and/or T cell receptors or fragments thereof, as they show sufficient avidity to the MHC molecules and prevent dissociation of the MHC complexes.

Substance	Peptide exchange (MHC class I binding score, peptide exchange yield)
109 (ILGSFELQL; listed as Homo sapiens) [compound 109]	+++ (≧50 = +++)
30 (IITEVITRL; listed as Homo sapiens) [compound 30]	+++ (≧50 = +++)
269 (GLLDCPIFL; listed as Homo sapiens) [compound 269]	++++ (≧75% = ++++)
23 (ALLSPLSLA; listed as Homo sapiens) [compound 23]	+++ (≧50 = +++)
52 (TIGIPFPNV; listed as Homo sapiens) [compound 52]	++ (≧20% = ++)
74 (GLAFLPASV; listed as Homo sapiens) [compound 74]	++ (≧20% = ++)
224 (LLFDWSGTGRADA; listed as Homo sapiens) [compound 224]	+++ (≧50 = +++)
171 (LLLLDVPTA; listed as Homo sapiens) [compound 171]	++ (≧20% = ++)
286 (FLTEMVHFI; listed as Homo sapiens) [compound 286]	+++ (≧50 = +++)
226 (SLAGNLQEL; listed as Homo sapiens) [compound 226]	+++ (≧50 = +++)
47 (GLNGFNVLL; listed as Homo sapiens) [compound 47]	+++ (≧50 = +++)
199 (SVADLAHVL; listed as Homo sapiens) [compound 199]	++ (≧20% = ++)
69 (LKVLKADVVL; listed as Homo sapiens) [compound 69]	++ (≧20% = ++)
148 (YLILSSHQL; listed as Homo sapiens) [compound 148]	+++ (≧50 = +++)
28 (IKVTDPQLLEL; listed as Homo sapiens) [compound 28]	++ (≧20% = ++)
41 (IVTEIISEI; listed as Homo sapiens) [compound 41]	+++ (≧50 = +++)
204 (SEWGSPHAAVP; listed as Homo sapiens) [compound 204]	+++ (≧50 = +++)
166 (LLGDSSFFL; listed as Homo sapiens) [compound 166]	+++ (≧50 = +++)
231 (LLDDIFIRL; listed as Homo sapiens) [compound 231]	+++ (≧50 = +++)
235 (SLLNQPKAV; listed as Homo sapiens) [compound 235]	++ (≧20% = ++)
278 (VLEDKVLSV; listed as Homo sapiens) [compound 278]	+++ (≧50 = +++)

Substance	Peptide exchange (MHC class I binding score, peptide exchange yield)
138 (GIINKLVTV; listed as Homo sapiens) [compound 138]	++ (≧20% = ++)
213 (ILAVDGVLSV; listed as Homo sapiens) [compound 213]	+++ (≧50 = +++)
276 (RMPTVLQCV; listed as Homo sapiens) [compound 276]	+++ (≧50 = +++)
272 (FVMEGEPPKL; listed as Homo sapiens) [compound 272]	++ (≧20% = ++)
65 (SLSEKSPEV; listed as Homo sapiens) [compound 65]	++ (≧20% = ++)
146 (VVAAHLAGA; listed as Homo sapiens) [compound 146]	++ (≧20% = ++)
129 (KMASKVTQV; listed as Homo sapiens) [compound 129]	++ (≧20% = ++)
141 (NIDINNNEL; listed as Homo sapiens) [compound 141]	++ (≧20% = ++)
110 (QIQGQVSEV; listed as Homo sapiens) [compound 110]	++ (≧20% = ++)
210 (GLAGDNIYL; listed as Homo sapiens) [compound 210]	+++ (≧50 = +++)
248 (VLMQDSRLYL; listed as Homo sapiens) [compound 248]	+++ (≧50 = +++)
132 (ALLNNVIEV; listed as Homo sapiens) [compound 132]	+++ (≧50 = +++)
22 (LMYPYIYHV; listed as Homo sapiens) [compound 22]	+++ (≧50 = +++)
150 (VLLDMVHSL; listed as Homo sapiens) [compound 150]	+++ (≧50 = +++)
271 (VLIEYNFSI; listed as Homo sapiens) [compound 271]	+++ (≧50 = +++)
70 (GLTEKTVLV; listed as Homo sapiens) [compound 70]	++ (≧20% = ++)
212 (MTLSEIHAV; listed as Homo sapiens) [compound 212]	++ (≧20% = ++)
151 (DISKRIQSL; listed as Homo sapiens) [compound 151]	++ (≧20% = ++)
85 (KLLDKPEQFL; listed as Homo sapiens) [compound 85]	++ (≧20% = ++)
63 (KLLPMVIQL; listed as Homo sapiens) [compound 63]	+++ (≧50 = +++)
190 (SLSTELFKV; listed as Homo sapiens) [compound 190]	+++ (≧50 = +++)

Substance	Peptide exchange (MHC class I binding score, peptide exchange yield)
170 (FIAAVVEKV; listed as Homo sapiens) [compound 170]	++ (≧20% = ++)
244 (NVAEIVIHI; listed as Homo sapiens) [compound 244]	+++ (≧50 = +++)
119 (SLIEESEEL; listed as Homo sapiens) [compound 119]	++ (≧20% = ++)
68 (QLMNLIRSV; listed as Homo sapiens) [compound 68]	+++ (≧50 = +++)
155 (TLDSYLKAV; listed as Homo sapiens) [compound 155]	++ (≧20% = ++)
225 (FLPQPVPLSV; listed as Homo sapiens) [compound 225]	+++ (≧50 = +++)
228 (SLLELDGINLRL; listed as Homo sapiens) [compound 228]	+++ (≧50 = +++)
108 (FIANLPPELKA; listed as Homo sapiens) [compound 108]	+++ (≧50 = +++)
111 (AQLEGKLVSI; listed as Homo sapiens) [compound 111]	+++ (≧50 = +++)
6 (FLNAIETAL; listed as Homo sapiens) [compound 6]	++++ (≧75% = ++++)
195 (VIIQNLPAL; listed as Homo sapiens) [compound 195]	+++ (≧50 = +++)
187 (SILKEDPFL; listed as Homo sapiens) [compound 187]	++ (≧20% = ++)
18 (KTASINQNV; listed as Homo sapiens) [compound 18]	++ (≧20% = ++)
128 (SILTNISEV; listed as Homo sapiens) [compound 128]	++ (≧20% = ++)
7 (ALLQALMEL; listed as Homo sapiens) [compound 7]	+++ (≧50 = +++)
281 (LLLESDPKVYSL; listed as Homo sapiens) [compound 281]	++ (≧20% = ++)
253 (KLLAVIHEL; listed as Homo sapiens) [compound 253]	+++ (≧50 = +++)
203 (FLFVDPELV; listed as Homo sapiens) [compound 203]	++ (≧20% = ++)
31 (GLLETTGLLAT; listed as Homo sapiens) [compound 31]	+++ (≧50 = +++)
238 (HLQEKLQSL; listed as Homo sapiens) [compound 238]	++ (≧20% = ++)
